Laboratory results taken from publication PMC4837377.

What was measured:
[1] = target: T1, PA;PB1 (in PA-PB1-PB2(1-116));PB2(1-116) (Influenza A virus A/Victoria/3/1975(H3N2);Influenza A virus A/Victoria/3/1975(H3N2);Influenza A virus A/Victoria/3/1975(H3N2)) (UniProt P03432+H9XIJ5); assay: filter binding
[2] = target: PA;PB1(1-686) (Influenza A virus A/Victoria/3/1975(H3N2);Influenza A virus A/Victoria/3/1975(H3N2)) (UniProt P03432); assay: filter binding
[3] = target: T1, PA;PB1 (in PA-PB1-PB2(1-116));PB2(1-116) (Influenza A virus A/Victoria/3/1975(H3N2);Influenza A virus A/Victoria/3/1975(H3N2);Influenza A virus A/Victoria/3/1975(H3N2)); assay: fluorescence anisotropy
[4] = system: PA;PB1(1-686);RanBP5 (Influenza A virus A/Victoria/3/1975(H3N2);Influenza A virus A/Victoria/3/1975(H3N2);Homo sapiens), P03432+O00410-3; assay: fluorescence anisotropy; conditions: 5'-monophosphate
PA;PB1(1-686);RanBP5 (Influenza A virus A/Victoria/3/1975(H3N2);Influenza A virus A/Victoria/3/1975(H3N2);Homo sapiens), P03432+O00410-3, sequence (O00410 whole entry, looked up, chain 1 of 2): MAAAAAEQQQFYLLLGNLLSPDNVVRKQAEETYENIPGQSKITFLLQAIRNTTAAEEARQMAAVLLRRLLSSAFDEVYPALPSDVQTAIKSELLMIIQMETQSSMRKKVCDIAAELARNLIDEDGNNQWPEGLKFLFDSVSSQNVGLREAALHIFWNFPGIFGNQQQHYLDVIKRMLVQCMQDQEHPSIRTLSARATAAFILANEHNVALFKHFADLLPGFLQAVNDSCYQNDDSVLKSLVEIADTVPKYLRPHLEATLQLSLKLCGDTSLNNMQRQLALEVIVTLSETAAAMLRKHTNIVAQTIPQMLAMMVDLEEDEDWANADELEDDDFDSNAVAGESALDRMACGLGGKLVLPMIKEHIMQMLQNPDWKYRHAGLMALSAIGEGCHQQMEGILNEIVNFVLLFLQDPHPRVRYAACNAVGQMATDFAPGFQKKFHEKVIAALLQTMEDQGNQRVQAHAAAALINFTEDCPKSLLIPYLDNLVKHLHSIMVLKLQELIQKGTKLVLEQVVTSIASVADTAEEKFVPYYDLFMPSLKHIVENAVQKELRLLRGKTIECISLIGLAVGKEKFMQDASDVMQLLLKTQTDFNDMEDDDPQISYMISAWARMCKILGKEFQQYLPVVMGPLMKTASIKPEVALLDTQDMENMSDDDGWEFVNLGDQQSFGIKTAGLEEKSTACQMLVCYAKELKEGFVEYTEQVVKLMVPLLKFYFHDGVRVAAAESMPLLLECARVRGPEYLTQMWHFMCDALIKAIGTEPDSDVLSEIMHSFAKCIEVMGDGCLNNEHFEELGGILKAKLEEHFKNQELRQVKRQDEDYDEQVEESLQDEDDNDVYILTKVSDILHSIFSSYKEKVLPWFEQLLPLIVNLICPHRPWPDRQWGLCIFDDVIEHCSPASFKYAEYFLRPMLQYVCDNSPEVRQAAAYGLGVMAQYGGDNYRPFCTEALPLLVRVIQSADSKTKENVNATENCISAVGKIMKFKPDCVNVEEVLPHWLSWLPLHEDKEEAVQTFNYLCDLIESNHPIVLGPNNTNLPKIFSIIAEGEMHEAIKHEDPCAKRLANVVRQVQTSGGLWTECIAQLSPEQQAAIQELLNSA
PA;PB1(1-686);RanBP5 (Influenza A virus A/Victoria/3/1975(H3N2);Influenza A virus A/Victoria/3/1975(H3N2);Homo sapiens), P03432+O00410-3, sequence (P03432 whole entry, looked up, chain 2 of 2): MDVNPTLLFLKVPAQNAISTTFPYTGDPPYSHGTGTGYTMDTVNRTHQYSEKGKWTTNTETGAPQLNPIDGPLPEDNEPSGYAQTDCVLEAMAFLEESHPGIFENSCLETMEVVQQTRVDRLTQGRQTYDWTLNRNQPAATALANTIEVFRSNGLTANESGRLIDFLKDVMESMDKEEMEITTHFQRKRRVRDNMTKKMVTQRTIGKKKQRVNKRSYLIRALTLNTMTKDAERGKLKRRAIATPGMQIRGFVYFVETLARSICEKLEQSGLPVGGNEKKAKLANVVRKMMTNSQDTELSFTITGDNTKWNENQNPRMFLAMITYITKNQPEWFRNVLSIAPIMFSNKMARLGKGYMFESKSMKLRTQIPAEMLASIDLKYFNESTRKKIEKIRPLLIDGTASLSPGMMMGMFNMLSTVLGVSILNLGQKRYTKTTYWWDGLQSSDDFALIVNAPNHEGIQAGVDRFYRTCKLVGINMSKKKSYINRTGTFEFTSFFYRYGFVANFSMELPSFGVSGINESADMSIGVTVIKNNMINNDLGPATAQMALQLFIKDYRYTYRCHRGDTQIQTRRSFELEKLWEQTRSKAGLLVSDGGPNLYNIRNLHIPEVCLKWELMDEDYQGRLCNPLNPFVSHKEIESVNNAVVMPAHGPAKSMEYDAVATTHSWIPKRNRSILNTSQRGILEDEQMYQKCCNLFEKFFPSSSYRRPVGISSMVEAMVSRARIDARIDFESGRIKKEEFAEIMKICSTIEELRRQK

[5] = target: PA;PB1(1-686) (Influenza A virus A/Victoria/3/1975(H3N2);Influenza A virus A/Victoria/3/1975(H3N2)) (UniProt P03432); assay: fluorescence anisotropy; conditions: 5'-monophosphate
[6] = system: NP; assay: fluorescence anisotropy; conditions: 5'-monophosphate

T1 sequence (P03432 whole entry, looked up, chain 2 of 2, other chains not shown): as the sequence (P03432 whole entry, looked up, chain 2 of 2) above
PA;PB1(1-686) (Influenza A virus A/Victoria/3/1975(H3N2);Influenza A virus A/Victoria/3/1975(H3N2)), sequence (P03432 whole entry, looked up): as the sequence (P03432 whole entry, looked up, chain 2 of 2) above

## AGUAGAAACAAGGGUA [5'-vRNAp (32P)]
[1]
  Kd: 0.19 nM
[2]
  Kd: 0.38 nM

## AGUAGAAACAAGGGUA [5'-vRNAp]
[3]; 5'-monophosphate
  Kd: 0.83 nM
[4]
  Kd: > 1000 nM
[5]
  Kd: 0.87 nM

## AUACCCUGCUUUUGCU [3'-vRNAp (32P)]
[1]
  Kd: 17 nM

## AUACCCUGCUUUUGCU [3'-vRNAp]
[3]
  Kd: 36 nM

## UCUCUCUCUCUCUCUCUC [polyUC]
[3]; 5'-monophosphate
  Kd: > 1000 nM
[6]
  Kd: 29 nM
